Assays:
[1] = target: T1, Recombinant human B7-1 Fc Chimera (RnD Systems, 140-B1-100), biotinylated (human, UniProt P33681 35-242, biotinylated (ECL biotinylation module, GE Healthcare, at a quarter of the kit recommended level)); assay: bridging ELISA: coated VEGFR2 Fc, titrated control, detection with biotinylated B7-1 Fc and ExtrAvidin peroxidase
T1 construct: Bought reagent; also called biotinylated B7-1; Fc part of the bought chimera not given
T1 sequence (looked up): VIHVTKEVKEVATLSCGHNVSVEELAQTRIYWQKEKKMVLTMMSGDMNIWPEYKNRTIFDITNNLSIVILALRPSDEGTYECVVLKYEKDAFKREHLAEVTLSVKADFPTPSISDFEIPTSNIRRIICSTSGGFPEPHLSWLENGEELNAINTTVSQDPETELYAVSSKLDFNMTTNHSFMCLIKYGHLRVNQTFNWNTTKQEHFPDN

human TNFα = target: T2, human TNFα (human, UniProt P01375 77-233); assay: assay not stated (description of the dAb in Example 11)
T2 construct: also called TNF ligand; TNFα (Peprotech)
T2 sequence (P01375 77-233 limits assumed): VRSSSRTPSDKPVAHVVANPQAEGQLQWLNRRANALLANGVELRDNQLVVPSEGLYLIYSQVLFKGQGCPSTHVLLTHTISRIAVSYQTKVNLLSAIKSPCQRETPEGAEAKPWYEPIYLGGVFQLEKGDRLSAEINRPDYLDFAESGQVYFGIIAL

B1: BPC1801 (bispecific IGF1R-VEGFR2 antigen binding construct) (bispecific antibody, human IgG1, kappa)
heavy: not shown
light: DIVMTQSPLSLPVTPGEPASISCRSSQSIVQSNGDTYLEWYLQKPGQSPQLLIYRVSNRFSGVPDRFSGSGSGTDFTLKISRVEAEDVGVYYCFQGSHVPYTFGQGTKLEIKRTVAAPSVFIFPPSDEQLKSGTASVVCLLNNFYPREAKVQWKVDNALQSGNSQESVTEQDSKDSTYSLSSTLTLSKADYEKHKVYACEVTHQGLSSPVTKSFNRGEC
notes: Negative control of the VEGFR2/B7-1 bridging ELISA
B1: no binding [1].

B2: PEP1-5-19 (anti-TNFα dAb) (other)
VL: DIQMTQSPSSLSASVGDRVTITCRASQSIDSYLHWYQQKPGKAPKLLIYSASELQSGVPSRFSGSGSGTDFTLTISSLQPEDFATYYCQQVVWRPFTFGQGTKVEIKR
notes: Vk domain antibody (dAb), monomer; also called Anti-TNFα Vk dAb (PEP1-5-19)
Work on B2 yielded a Kd (human TNFα) of ~8 nM.
